From US8465945B2, “Method for production and use of mite group 1 proteins” (Merck Patent GmbH, priority 1999, dated 2013)

Legend:
[1] = test system: IgE from pooled mite-allergic human sera; assay: Monoclonal Capture ELISA (Example 8B, Table 7); assay type: binding
Experimental: (§1) Assays were carried out as follows. A microtiter plate as described in Example 5 was coated overnight at 4° C. with 100 ng/well of anti-Der f 1 protein monoclonal antibody 6A8, denoted herein as anti-Der f 1 MAb 6A8, provided by Dr. Martin Chapman. The plate was washed in the manner described above. The following proteins were then added to wells, having been diluted in Assay Buffer in a 2-fold dilution series, from 0.75 to 50 ng/well: Heska native Derf1, P. pastoris-expressed PDerf1303b, and E. coli-expressed PDerf1303c. After incubation for 1 hour at room temperature, plates were washed as described in Example 5. Then 100 μl per well of a 1:1000 dilution in Assay Buffer of biotinylated anti-Der f 1 monoclonal antibody 4C1, also denoted anti-Der f 1 MAb 4C1, provided by Dr. Martin Chapman, was added for 1 hour at room temperature. Plates were washed, streptavidin-HRP conjugate was added, and plates were developed as described in Example 5.
B. The Der f 1 proteins described in Example 8B were reacted as described in Example 6 with a pool of serum samples collected from 16 mite-allergic human patients.

[2] = test system: IgE from mite-allergic or normal human sera; assay: ELISA, binding of IgE from human sera to coated Der f 1 proteins or mite extracts, detected with FcεR1α-biotin
[3] = test system: anti-Der f 1 MAb 6A8 (capture) and anti-Der f 1 MAb 4C1 (detection); assay: Monoclonal Capture ELISA; assay type: binding
Experimental: as §1

[4] = test system: IgE from mite-allergic dog sera; assay: ELISA, binding of IgE from dog sera to coated Der f 1 proteins or mite extracts, detected with FcεR1α-biotin
Experimental: Native or recombinant Der f 1 proteins in 100 μl CBC buffer (50 mM sodium carbonate, pH 9.6) were coated onto wells (100 ng per well) of Immulon II microtiter plates (available from Dynex Technologies, Chantilly, Va.) by incubation at 4° C., covered, overnight. Excess fluid was removed and wells were blocked with 200 μl Assay Buffer (4% fetal calf serum (available from Summit Laboratories, Fort Collins, Colo.) in phosphate buffered saline (PBS, recipe in Sambrook, ibid.), plus 0.05% Tween-20 (available from Sigma, St. Louis, Mo.)) for one hour at room temperature. Plates were then washed for 4 cycles on an automatic plate washer (Ultrawash, available from Dynatech Laboratories) using PBS with 0.05% Tween-20. […] Control wells were treated identically except that no serum was added. Plates were then washed as described above. Biotinylated human IgE receptor alpha chain (FcεR1α-biotin) (100 μl of 1.3 ng/ml) prepared as described in U.S. Pat. No. 5,945,294, ibid., was added and incubated for one hour at room temperature. After this incubation, plates were washed as described above. Streptavidin-horseradish peroxidase conjugate (0.5 mg/ml, available from KPL Labs, Gaithersburg, Md.) was added at a 1:5000 dilution in Assay Buffer for one hour at room temperature, after which plates were washed as described above. TMB Peroxidase substrate system, 2 part (available from KPL Labs, #0-76-00), added at 100 μl per well, was used according to the manufacturer's directions. The color reaction was allowed to proceed until good color development was reached (about 10-15 min); then the reaction was stopped with 100 μl per well of 1 M phosphoric acid. Bound IgE was determined by measuring absorbance (Optical Density, or OD) at 450 nm (nanometers) using an ELISA plate reader (such as Spectramax”, Molecular Devices, Sunnyvale, Calif.). Background OD readings in the control wells were subtracted from all numbers. Results are reported in Tables 1, 2 and 3 as OD multiplied by 1000. OD numbers greater than 100 are considered to be positive for a reaction with IgE. P. pastoris-expressed proteins are denoted in the Tables as Pichia expressed proteins.

B1: PDerf1303d: P. pastoris HCY288-expressed Der f 1 lacking N-glycosylation site, asparagine 133 replaced by glutamine (SEQ ID NO:38) (protein, listed as Dermatophagoides farinae)
chain: RPASIKTFEEFKKAFNKNYATVEEEEVARKNFLESLKYVEANKGAINHLSDLSLDEFKNRYLMSAEAFEQLKTQFDLNAETSACRINSVNVPSELDLRSLRTVTPIRMQGGCGSCWAFSGVAATESAYLAYRQTSLDLSEQELVDCASQHGCHGDTIPRGIEYIQQNGVVEERSYPYVAREQRCRRPNSQHYGISNYCQIYPPDVKQIREALTQTHTAIAVIIGIKDLRAFQHYDGRTIIQHDNGYQPNYHAVNIVGYGSTQGDDYWIVRNSWDTTWGDSGYGYFQAGNNLMMIEQYPYVVIM
- OD, Monoclonal Capture ELISA ([1]; 0.39 ng protein per well): 1380 OD
- OD, Monoclonal Capture ELISA ([1]; 0.78 ng protein per well): 1963 OD
- OD, Monoclonal Capture ELISA ([1]; 1.55 ng protein per well): 2626 OD
- OD, Monoclonal Capture ELISA ([1]; 3.1 ng protein per well): 2913 OD
- OD, Monoclonal Capture ELISA ([1]; 6.25 ng protein per well): 2991 OD
- OD, Monoclonal Capture ELISA ([1]; 12.5 ng protein per well): 3037 OD
- OD, Monoclonal Capture ELISA ([1]; 25 ng protein per well): 3007 OD
- OD, bound IgE ([2]; Table 6, pool of sera from 16 mite-allergic human patients, 6.2 ng protein per well): 88 OD
- OD, bound IgE ([2]; Table 6, pool of sera from 16 mite-allergic human patients, 12.5 ng protein per well): 347 OD
- OD, bound IgE ([2]; Table 6, pool of sera from 16 mite-allergic human patients, 25 ng protein per well): 591 OD
- OD, bound IgE ([2]; Table 6, pool of sera from 16 mite-allergic human patients, 50 ng protein per well): 779 OD
- OD, bound IgE ([2]; Table 6, pool of sera from 16 mite-allergic human patients, 100 ng protein per well): 1097 OD
- OD, bound IgE ([2]; Table 6, pool of sera from 16 mite-allergic human patients, 200 ng protein per well): 1448 OD

B2: Heska native Derf1: Native purified Der f 1 protein, purified as described in U.S. Ser. No. 09/292,225 (protein)
chain: TSACRINSVNVPSELDLRSLRTVTPIRMQGGCGSCWAFSGVAATESAYLAYRNTSLDLSEQELVDCASQHGCHGDTIPRGIEYIQQNGVVEERSYPYVAREQRCRRPNSQHYGISNYCQIYPPDVKQIREALTQTHTAIAVIIGIKDLRAFQHYDGRTIIQHDNGYQPNYHAVNIVGYGSTQGDDYWIVRNSWDTTWGDSGYGYFQAGNNLMMIEQYPYVVIM
- OD, bound IgE ([2]; Assay Number 1, serum human 1916): 51 OD multiplied by 1000
- OD, bound IgE ([2]; Assay Number 1, serum human3848): 3123 OD multiplied by 1000
- OD, bound IgE ([2]; Assay Number 1, serum human 3958): 3368 OD multiplied by 1000
- OD, bound IgE ([2]; Assay Number 1, serum human 3960): 2279 OD multiplied by 1000
- OD, bound IgE ([2]; Assay Number 1, serum human 3961): 1479 OD multiplied by 1000
- OD, bound IgE ([2]; Assay Number 1, serum human 3987): 3741 OD multiplied by 1000
- OD, bound IgE ([2]; Assay Number 1, serum human 4289): 777 OD multiplied by 1000
- OD, bound IgE ([2]; Assay Number 1, serum human 4467): 1302 OD multiplied by 1000
- OD, bound IgE ([2]; Assay Number 1, serum human 5207): 3051 OD multiplied by 1000
- OD, bound IgE ([2]; Assay Number 1, serum human pool): 1732 OD multiplied by 1000
- OD, bound IgE ([2]; Assay Number 2, serum Heska human B): 0 OD multiplied by 1000
- OD, bound IgE ([2]; Assay Number 2, serum Heska human C): 0 OD multiplied by 1000
- OD, bound IgE ([2]; Assay Number 2, serum Heska human D): 0 OD multiplied by 1000
- OD, bound IgE ([2]; Assay Number 2, serum Heska human E): 19 OD multiplied by 1000
- OD, bound IgE ([2]; Assay Number 2, serum Heska human F): 0 OD multiplied by 1000
- OD, bound IgE ([2]; Assay Number 2, serum Heska human G): 1 OD multiplied by 1000
- OD, bound IgE ([2]; Assay Number 2, serum Heska human H): 0 OD multiplied by 1000
- OD, bound IgE ([2]; Assay Number 2, serum Heska human I): 1 OD multiplied by 1000
- OD, bound IgE ([2]; Assay Number 2, serum Heska human J): 1 OD multiplied by 1000
- OD, bound IgE ([2]; Assay Number 2, serum Heska human K): 0 OD multiplied by 1000
- OD, bound IgE ([2]; Assay Number 2, serum Heska human L): 0 OD multiplied by 1000
- OD, bound IgE ([2]; Assay Number 2, serum Heska human M): 51 OD multiplied by 1000
- OD, bound IgE ([2]; Assay Number 2, serum Heska human N): 885 OD multiplied by 1000
- OD, bound IgE ([2]; Assay Number 2, serum Heska human O): 0 OD multiplied by 1000
- OD, bound IgE ([2]; Assay Number 2, serum Heska human P): 0 OD multiplied by 1000
- OD, bound IgE ([2]; Assay Number 2, serum Heska human Q): 0 OD multiplied by 1000
- OD, bound IgE ([2]; Assay Number 2, serum Heska human R): 1 OD multiplied by 1000
- OD, bound IgE ([2]; Assay Number 2, serum human 1916): 62 OD multiplied by 1000
- OD, bound IgE ([2]; Assay Number 2, serum human 3848): 2362 OD multiplied by 1000
- OD, bound IgE ([2]; Assay Number 2, serum human 3958): 2235 OD multiplied by 1000
- OD, bound IgE ([2]; Assay Number 2, serum human 3960): 1308 OD multiplied by 1000
- OD, bound IgE ([2]; Assay Number 2, serum human 3961): 784 OD multiplied by 1000
- OD, bound IgE ([2]; Assay Number 2, serum human 3987): 2664 OD multiplied by 1000
- OD, bound IgE ([2]; Assay Number 2, serum human 4289): 589 OD multiplied by 1000
- OD, bound IgE ([2]; Assay Number 2, serum human 4467): 1051 OD multiplied by 1000
- OD, bound IgE ([2]; Assay Number 2, serum human 5207): 2746 OD multiplied by 1000
- OD, bound IgE ([2]; Assay Number 2, serum human pool): 2599 OD multiplied by 1000
- OD, protein captured by MAb 6A8 and detected by MAb 4C1 ([3]; 0.75 ng protein per well): 1740 OD
- OD, protein captured by MAb 6A8 and detected by MAb 4C1 ([3]; 1.5 ng protein per well): 2043 OD
- OD, protein captured by MAb 6A8 and detected by MAb 4C1 ([3]; 2.5 ng protein per well): 2291 OD
- OD, protein captured by MAb 6A8 and detected by MAb 4C1 ([3]; 3.1 ng protein per well): 2219 OD
- OD, protein captured by MAb 6A8 and detected by MAb 4C1 ([3]; 6.25 ng protein per well): 2197 OD
- OD, protein captured by MAb 6A8 and detected by MAb 4C1 ([3]; 25 ng protein per well): 2142 OD
- OD, protein captured by MAb 6A8 and detected by MAb 4C1 ([3]; 50 ng protein per well): 2183 OD
- OD, bound IgE ([4]; Assay Number 1, serum dog pool): 750 OD multiplied by 1000
- OD, bound IgE ([4]; Assay Number 1, serum dog-1): 3 OD multiplied by 1000
- OD, bound IgE ([4]; Assay Number 1, serum dog-2): 2245 OD multiplied by 1000
- OD, bound IgE ([4]; Assay Number 1, serum dog-3): 2839 OD multiplied by 1000
- OD, bound IgE ([4]; Assay Number 2, dog sera pool A 146): 449 OD multiplied by 1000
- OD, bound IgE ([4]; Assay Number 2, dog sera pool KS338): 101 OD multiplied by 1000
